Test results reported in the supplement of paper PMC11865577.

Tests used:
Test in all cases: pull-down binding Z-score (relative to library population); higher = stronger binding
Conditions in all cases: RNA library: Library-2
[1] = test system: TO-3-N3 (biotin conjugate)
Summary of the method: (§1)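 Heat-folded RNA library (1 μg, Cy5 or Cy3 end label, phosphate/NaCl/KCl buffer) was captured for 60 min at 25 °C on streptavidin beads displaying 100 pmol of biotin-conjugated small molecule, then washed three times. The bound fraction, eluted in hot SDS, was hybridised to a DNA barcode microarray at 55.5 °C for 20 h. Z-scores for binding were taken against the library mean and standard deviation after beads-only subtraction and trimmed averaging of replicate barcoded probes.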

[2] = test system: TO-3-N3-2 (biotin conjugate)
Summary of the method: as §1

TO-N3 (biotin conjugate) = test system: TO-N3 (biotin conjugate)
Summary of the method: as §1

[3] = test system: TO-N3-2 (biotin conjugate)
Summary of the method: as §1

Row | Sequence | pull-down binding Z-score [1] | pull-down binding Z-score [2] | pull-down binding Z-score (TO-N3 (biotin conjugate)) | pull-down binding Z-score [3]
1 | UAGAUGCUGUAAAUUUACUUACUAAUAUGUUUACACCACUAAUUCAACCUAUUGGUGCUUUGGACAUAUCAGCAUCUA [DMSMaPseq_invitro_SARS-CoV-2_Multi_30_ComplexLevel_1] | 0.39 | -0.0621 | 0.0803 | -0.105
2 | GAGGUAAGUACGAUACUUACCUG [U1snRNP5ss-7] | -0.856 | -0.544 | -1.17 | -0.876
3 | GAGUUACACAGAAUGUUCUCUAUGAGAACCAAAAAUUGAUUGCCAACCAAUUUAAUAGUGCUAUUGGCAAAAUUCAAGACUC | -0.57 | 0.305 | -0.581 | -0.226
4 | GCGCUUUAGGUCUACACGGGCCGAAGCUAACGCGUUAAGCGC [3-way model-5_mrRNA] | 0.146 | 0.0632 | 0.0607 | 0.245
5 | UGUGGACAUGUCAAUGACAUAUGGACAACAGUUUGGUCCAACUUAUUUGGAUGGAGCUGAUGUUACUAAAAUAAAACCUCAUAAUUCACA | -0.618 | -0.162 | -0.544 | -0.453
6 | GCAUUGAUUUAGAUGAGUGGAGUAUGGCUACAUACUACUUAUUUGAUGAGUCUGGUGAGUUUAAAUUGGCUUCACAUAUGU | -0.215 | -0.04 | 0.0261 | 0.256
7 | GGGGCCGGGGCCGGGGCCGGGGCCGGGGCCGGGGCC [G4_r(GGGGCC)8] | 4.47 | 4.66 | 3.9 | 3.77
8 | AUGCUGACGAUGGUCAUUUUGUCAGCAU [IAV_invivo_M1_M2_7_Motif_18+IAV_invivo_M1_M2_7_Motif_18] | 0.0275 | 0.337 | -0.322 | -0.84
9 | ACAUACUAGGACCUCUUUCUGCUCAAACUGGAAUUGCCGUUUUAGAUAUGU [DMSMaPseq_invitro_SARS-CoV-2_Motif_193] | -0.933 | -0.407 | -0.989 | -0.421
10 | UGCAACGAUACCGAUACAAGCCUCACUCCCUUUCGGAUGGCUUAUUGUUGGCGUUGCA | -0.475 | -0.134 | -0.366 | -0.000368
11 | UGGUAAUGCUGCUAUCAGCGAUUAUGACUACUAUCGUUAUAAUCUACCA | -0.937 | -0.385 | -1.09 | -0.119
12 | CCAAGACAUGUGAUCUGCACCUCUGAAGACAUGCUUAACCCUAAUUAUGAAGAUUUACUCAUUCGUAAGUCUAAUCAUAAUUUCUUGG [DMSMaPseq_invitro_SARS-CoV-2_Multi_33_ComplexLevel_1] | 0.403 | -0.101 | 0.332 | 0.229
13 | CUUAGCUGUCUUUGAUAAAAAUCUCUAUGACAAACUUGUUUCAAGCUUUUUGGAAAUGAAGAGUGAAAAGCAAGUUGAACAAAAGAUCGCUGAG [SHAPE_invivo_SARS-CoV-2_Motif_73] | 0.216 | 0.0166 | 0.0191 | 0.552
14 | GGAAUUUGAACC [IAV_invivo_PB2_1_Motif_28+IAV_invivo_PB2_1_Motif_28] | 0.293 | -0.147 | 0.0885 | -0.514
15 | GGCGAUAGUUGUAAUAACUAUAUGCU | -1.04 | -0.564 | -1.31 | -0.976
16 | UGAGUGUGACAUACCCAUUGGUGCAGGUAUAUGCGCUAGUUAUCAGACUCA | 0.734 | 0.422 | 0.865 | 0.541

Row | Sequence | pull-down binding Z-score [1] | pull-down binding Z-score [2] | pull-down binding Z-score (TO-N3 (biotin conjugate)) | pull-down binding Z-score [3]
17 | CCAUUUGCUAUGCAAAUGG | -0.562 | -0.677 | -1.05 | -1.56
18 | UGGAAUUGCAAUGUCGAUAGAUAUCCUGCUAAUUCCA | -0.0259 | 0.0197 | 0.0215 | -0.0708
19 | AUGCCUUUUUACCUUUUGCUAUGGGUAUUAUUGCUAUGUCUGCUUUUGCAAUGAUGUUUGUCAAACAUAAGCAUGCAU [DMSMaPseq_invitro_SARS-CoV-2_Multi_36_ComplexLevel_1] | 0.159 | 0.472 | 0.0122 | -0.261
20 | UGGGGACCAGGAACUAAUCAGACAAGGAACUGAUUACAAACAUUGGCCGCAAAUUGCACAAUUUGCCCCCA | -0.075 | 0.0998 | 0.312 | 0.83
21 | UACAAUUUGCCUAUGCCAACAGGAAUAGGUUUUUGUA | 0.38 | -0.176 | -0.122 | -1.3
22 | GGGAAAGAAGUCCU [IAV_invivo_HA_4_Motif_8+IAV_invivo_HA_4_Motif_8] | -0.398 | -0.278 | -0.705 | -0.872
23 | CAAUACAUAAGAAAGCUACAUGAUGAGUUAACAGGACACAUGUUAGACAUGUAUUCUGUUAUGCUUACUAAUGAUAACACUUCAAGGUAUUG | -0.424 | 0.625 | -0.411 | -0.157
24 | ACCCUCAAAAAGAGAUGGCAACUAGCACUCUCCAAGGGU | 0.217 | 0.0435 | 0.0275 | -0.427
25 | AUUGUUGUCGCUUCCAAGAAAAGGACGAAGAUGACAAU [DMSMaPseq_invitro_SARS-CoV-2_Motif_245] | 0.287 | -0.272 | -0.00678 | -0.371
26 | GUUAAAAAUCUGAAUUCUUCUAGAGUUCCUGAUCUUCUGGUCUAAAC | -0.557 | 0.157 | -0.527 | 0.13
27 | CAGUUUACUCACACCUUUUGCUCGUUGCUGCUG | -0.164 | -0.285 | -0.0216 | 0.0199
28 | GCACUGACUUGCUUUAGCACUCAAUUUGCUUUUGCUUGUCCUGACGGCGUAAAACACGUCUAUCAGUUACGUGC | 0.239 | -0.234 | 0.281 | -0.056
29 | GUUUUUGUACACAAUUAAACCGUGCUUUAACUGGAAUAGCUGUUGAACAAGACAAAAAC [DMSMaPseq_invitro_SARS-CoV-2_Motif_424] | 0.247 | -0.127 | 0.21 | -0.336
30 | UAGAGAAAACAACAGAGUUGUUAUUUCUAGUGAUGUUCUUGUUAACAACUAAACGAACAAUGUUUGUUUUUCUUGUUUUAUUGCCACUAGUCUCUA [SHAPE_invitro_SARS-CoV-2_Multi_58_ComplexLevel_1] | -0.989 | -0.215 | -0.976 | -0.78
31 | CUCUUGUAAUGUAAACAGAUUUAAUGUUGCUAUUACCAGAG | 0.0416 | -0.0635 | 0.0725 | -0.0897
32 | GGUAAUUAUACAGUUUCCUGUUUACCUUUUACAAUUAAUUGCC [SHAPE_invitro_SARS-CoV-2_Motif_513] | -0.718 | 0.0742 | -1.04 | -1.1
